Data as given in patent US20140377289A1, “Metallodrugs Having Improved Pharmacological Properties, and Methods of Manufacture and Use Thereof” (MetalloPharm, LLC, priority 2011, published 2014).
Where no end group is shown, it is not given here.

Assays:
[1] = target: HCV protease (hepatitis C virus (HCV)); assay: affinity of metallopeptide for HCV protease; method not described
[2] = target: Recombinant human somatic ACE (sACE-1: Leu30-Leu1261, with C-terminal His tag) (human) (UniProt P12821); assay: cell-based or functional assay
[3] = target: Recombinant human somatic ACE (sACE-1: Leu30-Leu1261, with C-terminal His tag) (human) (UniProt P12821); assay: affinity calculated from the IC50 of sACE-1 inhibition (fluorogenic substrate cleavage, 37 C, pH 7.4)

Chain of Recombinant human somatic ACE (sACE-1: Leu30-Leu1261, with C-terminal His tag) (human) (P12821 30-1261 limits assumed): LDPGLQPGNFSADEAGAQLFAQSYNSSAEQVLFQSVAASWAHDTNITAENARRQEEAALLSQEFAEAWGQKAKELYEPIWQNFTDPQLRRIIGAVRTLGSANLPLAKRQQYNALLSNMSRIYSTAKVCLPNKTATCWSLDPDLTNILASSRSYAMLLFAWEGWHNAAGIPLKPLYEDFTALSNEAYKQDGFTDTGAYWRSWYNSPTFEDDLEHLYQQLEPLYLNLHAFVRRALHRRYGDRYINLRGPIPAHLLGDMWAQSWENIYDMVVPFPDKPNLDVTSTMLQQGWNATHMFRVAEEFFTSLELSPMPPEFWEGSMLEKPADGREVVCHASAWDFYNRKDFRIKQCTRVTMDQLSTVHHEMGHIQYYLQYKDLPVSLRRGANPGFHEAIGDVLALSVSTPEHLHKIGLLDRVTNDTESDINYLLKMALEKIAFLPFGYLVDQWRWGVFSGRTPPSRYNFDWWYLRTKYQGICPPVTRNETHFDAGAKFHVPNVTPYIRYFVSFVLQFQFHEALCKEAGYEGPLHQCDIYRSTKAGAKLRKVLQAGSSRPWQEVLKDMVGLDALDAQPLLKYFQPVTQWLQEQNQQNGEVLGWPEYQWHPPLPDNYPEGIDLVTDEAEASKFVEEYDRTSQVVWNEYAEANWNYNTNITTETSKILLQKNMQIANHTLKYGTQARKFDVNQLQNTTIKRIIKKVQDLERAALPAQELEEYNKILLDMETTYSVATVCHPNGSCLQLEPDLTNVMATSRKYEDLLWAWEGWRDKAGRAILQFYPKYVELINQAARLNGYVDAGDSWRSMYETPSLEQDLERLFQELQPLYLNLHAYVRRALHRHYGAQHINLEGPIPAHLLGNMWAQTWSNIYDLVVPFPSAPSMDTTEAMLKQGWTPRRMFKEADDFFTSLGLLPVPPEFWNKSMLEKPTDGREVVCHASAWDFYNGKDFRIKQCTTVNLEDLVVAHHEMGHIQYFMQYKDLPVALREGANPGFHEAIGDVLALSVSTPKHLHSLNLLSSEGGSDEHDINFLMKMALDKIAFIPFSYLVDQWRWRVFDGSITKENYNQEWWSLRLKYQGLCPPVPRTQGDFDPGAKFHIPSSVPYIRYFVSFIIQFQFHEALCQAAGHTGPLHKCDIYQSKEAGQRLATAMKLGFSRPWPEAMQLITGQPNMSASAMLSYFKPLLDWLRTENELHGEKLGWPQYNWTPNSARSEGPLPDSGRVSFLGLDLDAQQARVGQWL

Substance | affinity [1] [µM] | IC50's (nM) for sACE-1 inhibition (fluorogenic substrate cleavage) [2] [nM] | Ka [3] [M⁻¹]
GGHDEMEEC | 48 | – | –
[Cu-GGH]^1- (peptide) | – | 17000 | 59000
